Positions count from the first letter of the chain named.
What was measured:
POP-1 [1] = molecular target: T1, POP-1 (Caenorhabditis elegans, UniProt Q10666 1-438); assay: EMSA; 10 mM Tris-HCl pH 7.5, 50 mM KCl, 1 mM DTT, 5 mM MgCl2, 0.05% NP-40, 50 ug/ml poly(dI-dC), glycerol; 20 ul; 5 min on ice then 25 min room temperature; 6% native gel; conditions: protein: recombinant, tags: 6xHis
T1 sequence: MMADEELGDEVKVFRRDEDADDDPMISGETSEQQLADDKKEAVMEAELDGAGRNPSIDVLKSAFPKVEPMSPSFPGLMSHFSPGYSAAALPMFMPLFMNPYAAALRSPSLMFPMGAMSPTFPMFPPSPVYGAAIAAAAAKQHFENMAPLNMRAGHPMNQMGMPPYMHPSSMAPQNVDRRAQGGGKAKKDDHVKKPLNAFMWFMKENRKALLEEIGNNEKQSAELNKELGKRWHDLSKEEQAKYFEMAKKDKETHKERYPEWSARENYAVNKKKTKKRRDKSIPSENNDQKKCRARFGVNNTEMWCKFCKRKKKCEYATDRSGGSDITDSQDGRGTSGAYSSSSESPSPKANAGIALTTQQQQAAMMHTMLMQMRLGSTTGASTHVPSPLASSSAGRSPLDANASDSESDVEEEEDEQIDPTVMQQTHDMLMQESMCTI

POP-1 [2] = molecular target: T1, POP-1; assay: competition; no competition at 200-fold excess; 10 mM Tris-HCl pH 7.5, 50 mM KCl, 1 mM DTT, 5 mM MgCl2, 0.05% NP-40, 50 ug/ml poly(dI-dC), glycerol; 20 ul; 5 min on ice then 25 min room temperature; 6% native gel; conditions: protein: recombinant; tags: 6xHis

B1: ceh-22b WRE WT probe 69 bp (dsDNA)
DNA 1: TACGAGAAGCGGCGATTCAAGAGTTTCAAATAACTTCTCCACCGCCTTTTGAAGTTGCCGAAAATAGTT
DNA 2: AACTATTTTCGGCAACTTCAAAAGGCGGTGGAGAAGTTATTTGAAACTCTTGAATCGCCGCTTCTCGTA
POP-1 [1]; label: biotin (labeled probe)
  binding result: binds

B2: K08D12.3 long WT probe (dsDNA)
DNA 1: CTGGCACGCGGCCAACATTCGATTTTGGGACGATCGACACGTTCTGGCCACATTTTCTTTGATTTTTTCTGATTTCGCCGACTTTTTTC
DNA 2: GAAAAAAGTCGGCGAAATCAGAAAAAATCAAAGAAAATGTGGCCAGAACGTGTCGATCGTCCCAAAATCGAATGTTGGCCGCGTGCCAG
POP-1 [1]; label: biotin (labeled probe)
  binding result: binds

B3: K08D12.3 HMG mutant (dsDNA)
DNA 1: B2 DNA 1 with T59G, A62C, T63G
DNA 2: B2 DNA 2 with A27C, T28G, A31C
POP-1 [2]
  binding result: no binding

B4: K08D12.3 Helper3 mutant (dsDNA)
DNA 1: B2 DNA 1 with G77T, C78A, C79A, G80T, A81C, C82A, T83G
DNA 2: B2 DNA 2 with A7C, G8T, T9G, C10A, G11T, G12T, C13A
POP-1 [2]
  binding result: no binding

B5: R05G6.5 probe (dsDNA)
DNA 1: CGGTCGCCGCGCCAATGTGCTTGCCTTTGAACTCTCAATTTGCTGTTGTGGCGTGAT
DNA 2: ATCACGCCACAACAGCAAATTGAGAGTTCAAAGGCAAGCACATTGGCGCGGCGACCG
POP-1 [1]; label: biotin
  binding result: no binding

B6: Y66D12A.9 probe (dsDNA)
DNA 1: TTGGCGCCGAGCACATATTTCCCATCGGAAGCTTTGAAATAGTCGAGCCCGCGGCCACTT
DNA 2: AAGTGGCCGCGGGCTCGACTATTTCAAAGCTTCCGATGGGAAATATGTGCTCGGCGCCAA
POP-1 [1]; label: biotin
  binding result: no binding

B7: psa-3 WRE WT probe 47 bp (dsDNA)
DNA 1: ACCGTTATGGCCGTGGAGGCTCTTTTGATGTGCAGCCGACAAGTACG
DNA 2: CGTACTTGTCGGCTGCACATCAAAAGAGCCTCCACGGCCATAACGGT
POP-1 [1]; label: biotin (labeled probe)
  binding result: binds
